B1: THAP1; numbered along this chain (parent)
chain: MVQSCSAYGCKNRYDKDKPVSFHKFPLTRPSLCKEWEAAVRRKNFKPTKYSSICSEHFTPDCFKRECNNKLLKENAVPTIFLCTEPHDKKEDLLEPQEQLPPPPLPPPVSQVDAAIGLLMPPLQTPVNLSVFCDHNYTVEDTMHQRKRIHQLEQQVEKLRKKLKTAQQRCRRQERQLEKLKEVVHFQKEKDDVSERGYVILPNDYFEIVEVPA

Variants of: B1
Assay: THAP1 transcriptional activity (GFP+/GFP- enrichment relative to wild-type constructs) (ratio to WT); higher = more THAP1 activity (PSMB5 reporter activation)
Settings: with PSMB5 promoter-GFP reporter
How it was run: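 In duplicate, a lentivirus-delivered library with every residue from 2–213 of human THAP1 changed to all 20 amino acids was introduced at MOI ~0.3 into THAP1-knockout HEK-293T cells carrying endogenous PSMB5 tagged by mClover3 knock-in. Five days on, BFP+ cells were binned as GFP-dim or GFP-bright, and Illumina sequencing of genomic DNA amplicons counted each variant. Activity is the bright/dim read fold change, averaged over replicates and scaled to the mean of wild-type synonymous constructs.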

| Variant | THAP1 transcriptional activity |
| --- | --- |
| K162P | 0.15 |
| K162N | 0.185 |
| H23E | 0.123 |
| H23D | 0.117 |
| V20M | 0.155 |
| C62N | 0.487 |
| C62Y | 0.141 |
| C62V | 0.0798 |
| C62P | 0.0987 |
| N136A | 0.208 |
| T48F | 0.109 |
| E74W | 0.598 |
| L27R | 0.23 |
| K24W | 0.156 |
| P78G | 0.102 |
| P78L | 0.161 |
| P102R | 1.43 |
| P102F | 0.858 |
| A38D | 1 |
| A38V | 0.684 |
| C5T | 0.162 |
| C5D | 0.262 |
| T59L | 0.372 |
| T59R | 0.426 |

| Variant | THAP1 transcriptional activity |
| --- | --- |
| S52V | 1.14 |
| H150N | 0.896 |
| S4L | 0.241 |
| K18E | 0.152 |
| N68Y | 0.125 |
| N68Q | 0.193 |
| N68P | 0.161 |
| N68C | 0.157 |
| N68S | 0.192 |
| V199N | 0.42 |
| V199K | 0.555 |
| V199T | 0.697 |
| P86I | 2.01 |
| P86R | 0.766 |
| P30S | 0.33 |
| K190S | 0.846 |
| G117C | 0.534 |
| S6C | 0.562 |
| S6P | 0.185 |
| K49L | 0.234 |
| K49T | 0.138 |
| K49F | 0.122 |
| T165H | 0.785 |
| T165K | 0.633 |

| Variant | THAP1 transcriptional activity |
| --- | --- |
| F81V | 0.312 |
| A7G | 0.118 |
| A7T | 0.0906 |
| A7P | 0.0917 |
| A7M | 0.279 |
| Q151A | 0.791 |
| Q151R | 1.12 |
| Q151P | 0.303 |
| K34H | 0.459 |
| K34G | 0.217 |
| K34P | 0.0748 |
| K34A | 0.749 |
| T138Y | 0.424 |
| T138W | 0.363 |
| T138H | 0.837 |
| T138I | 0.274 |
| I149Q | 0.327 |
| M120Q | 1.57 |
| M120P | 1.25 |
| M120F | 0.651 |
| Q111A | 0.608 |
| Q111E | 0.762 |
| Q111T | 1.13 |
| V40G | 0.0879 |

| Variant | THAP1 transcriptional activity |
| --- | --- |
| T28Q | 0.651 |
| T28I | 0.198 |
| C33F | 0.17 |
| W36D | 0.159 |
| R196M | 0.811 |
| P212S | 1.34 |
| P212M | 1.4 |
| V209N | 0.716 |
| V209H | 0.835 |
| Q155H | 0.765 |
| Q155K | 0.749 |
| D88T | 0.582 |
| F132W | 0.329 |
| F132T | 0.436 |
| P26A | 0.13 |
| K43A | 0.587 |
| K43G | 0.329 |
| K43I | 0.615 |
| V112E | 1.25 |
| V112A | 0.615 |
| E189M | 1.09 |
| E189L | 1.33 |
| F45N | 0.108 |
| F45C | 0.027 |

| Variant | THAP1 transcriptional activity |
| --- | --- |
| S55W | 0.0398 |
| S110M | 0.337 |
| S110V | 0.459 |
| S110K | 1.31 |
| S110W | 0.41 |
| S110E | 0.424 |
| E56W | 0.249 |
| E56A | 0.98 |
| E56P | 0.0876 |
| E56C | 0.263 |
| E56R | 0.389 |
| E56V | 0.83 |
| I53P | 0.0932 |
| I53G | 0.0813 |
| I53A | 0.136 |
| E95P | 1.22 |
| R175G | 0.388 |
| K188Y | 0.683 |
| K188L | 0.724 |
| L152A | 0.28 |
| E35R | 0.909 |
| E35G | 0.183 |
| E35Q | 1.42 |
| I200T | 0.694 |

| Variant | THAP1 transcriptional activity |
| --- | --- |
| S130F | 0.246 |
| D61M | 0.207 |
| E98M | 0.62 |
| E98A | 1.51 |
| E98L | 0.875 |
| E195Y | 0.588 |
| P19R | 0.675 |
| P19M | 0.208 |
| P19W | 0.162 |
| D141V | 0.352 |
| D141W | 0.255 |
| K90G | 1.6 |
| K90P | 1.06 |
| L159A | 0.245 |
| N75E | 0.468 |
| N75P | 0.241 |
| N75H | 0.567 |
| Q167V | 0.351 |
| Q167K | 0.613 |
| Q124P | 0.631 |
| F63G | 0.1 |
| F63L | 0.0863 |
| F63I | 0.134 |
| R171E | 0.218 |

| Variant | THAP1 transcriptional activity |
| --- | --- |
| R171T | 0.172 |
| R171I | 0.359 |
| D92G | 0.763 |
| P121L | 0.104 |
| P121F | 0.115 |
| P121E | 0.735 |
| P121V | 0.207 |
| S21N | 0.152 |
| S21F | 0.11 |
| S21A | 0.0835 |
| S21Y | 0.109 |
| Q187F | 0.78 |
| Q187S | 1.45 |
| Q168H | 0.394 |
| Q168P | 0.186 |
| K181R | 0.964 |
| K181C | 0.297 |
| V127L | 0.775 |
| V127D | 0.851 |
| S31D | 1.43 |
| S31R | 1.01 |
| S31Y | 0.535 |
| S31V | 0.895 |
| N203M | 0.934 |

| Variant | THAP1 transcriptional activity |
| --- | --- |
| N203G | 1.23 |
| L72I | 0.173 |
| L72H | 0.134 |
| T79G | 0.301 |
| T79W | 0.281 |
| L32N | 0.173 |
| Q145K | 0.783 |
| V131G | 0.244 |
| V131C | 0.427 |
| V131N | 0.494 |
| R172A | 0.396 |
| R172G | 0.234 |
| C133F | 0.613 |
| Y8S | 0.467 |
| Y8R | 0.374 |
| Q3I | 0.678 |
| Q3N | 0.442 |
| Q3F | 0.143 |
| C54T | 0.0761 |
| C54P | 0.234 |
| C54V | 0.0511 |
| L100G | 0.906 |
| L100Q | 1.41 |
| F206I | 1.27 |

| Variant | THAP1 transcriptional activity |
| --- | --- |
| F206Y | 1.21 |
| Q154G | 0.732 |
| Y50M | 0.091 |
| Y50F | 0.616 |
| G9K | 0.4 |
| L105G | 1.09 |
| E210F | 0.823 |
| E210S | 0.594 |
| L129Q | 0.659 |
| P202S | 0.869 |
| P202M | 1.1 |
| P108W | 0.601 |
| P108L | 1.93 |
| E153S | 0.631 |
| T142G | 0.864 |
| T142K | 0.964 |
| P96K | 1.37 |
| P96G | 1.55 |
| P96R | 1.45 |
| R65V | 0.559 |
| R65Y | 0.369 |
| D15N | 0.605 |
| D15W | 0.122 |
| D15L | 0.298 |

| Variant | THAP1 transcriptional activity |
| --- | --- |
| D15S | 0.562 |
| V139S | 0.407 |
| E37S | 0.558 |
| E37F | 0.177 |
| E37Q | 0.337 |
| Y205V | 0.976 |
| Y205L | 2.1 |
| Y205Q | 1.51 |
| D192W | 1.13 |
| D192R | 0.932 |
| K46T | 0.869 |
| S194H | 1.2 |
| K158Y | 0.666 |
| D17N | 0.707 |
| D17T | 1.49 |
| K147N | 0.976 |
| K147Y | 0.522 |
| K147M | 0.271 |
| K179D | 0.403 |
| K73D | 0.191 |
| K73I | 0.142 |
| K73L | 0.33 |
| V193I | 0.883 |
| V193K | 0.694 |

| Variant | THAP1 transcriptional activity |
| --- | --- |
| V193F | 1.06 |
| F58K | 0.0827 |
| F58M | 0.105 |
| A114W | 0.317 |
| V2L | 0.214 |
| V2G | 0.0831 |
| K164D | 0.173 |
| K164F | 0.167 |
| P122W | 0.159 |
| E207V | 1.29 |
| E207D | 0.615 |
| L118H | 1.01 |
| T84P | 1.44 |
| Y198P | 0.891 |
| Y198F | 0.947 |
| Y198K | 0.631 |
| Y198M | 1.02 |
| Q97I | 2.53 |
| Q97T | 1.88 |
| Q97C | 1.33 |
| E91T | 0.885 |
| E182Y | 0.58 |
| P107W | 0.215 |
| I208P | 0.675 |

| Variant | THAP1 transcriptional activity |
| --- | --- |
| I208A | 0.838 |
| K89N | 1.86 |
| K89P | 0.989 |
| D134A | 0.125 |
| D191C | 0.786 |
| A166T | 0.965 |
| N69D | 0.131 |
| C170T | 0.457 |
| C170N | 0.728 |
| C170S | 0.425 |
| C83V | 1.41 |
| R148K | 1.02 |
| R148M | 0.261 |
| N44H | 0.574 |
| N44F | 0.301 |
| A76C | 0.862 |
| H185G | 0.927 |
| I80L | 0.606 |
| L177W | 0.263 |
| L177R | 0.3 |
| K161N | 0.475 |
| K161H | 0.451 |
| K161D | 0.188 |
| K161M | 0.518 |

| Variant | THAP1 transcriptional activity |
| --- | --- |
| L71Y | 0.309 |
| L71T | 0.52 |
| L180M | 0.868 |
| K70W | 0.129 |
| K70I | 0.33 |
| L163W | 0.188 |
| Q99A | 0.795 |
| R160K | 0.689 |
| R160A | 0.391 |
| I116Q | 0.902 |
| F186M | 1.32 |
| F186Y | 1.36 |
| F186Q | 2.25 |
| E178K | 1.59 |
| K64D | 0.151 |
| D113V | 0.277 |
| D113I | 0.206 |
| E140V | 1.01 |
| E140Q | 1.61 |
| V183A | 1.11 |
| V183G | 0.742 |
| V77L | 0.547 |
| V77Q | 0.318 |
| Q176L | 0.707 |

| Variant | THAP1 transcriptional activity |
| --- | --- |
| Q176I | 0.557 |
| R42H | 0.105 |
| F22N | 0.0832 |
| F22L | 0.117 |
| V211N | 0.965 |
| V211T | 0.876 |
| T125G | 0.666 |
| A39H | 0.601 |
| A39D | 0.172 |
| A39E | 0.168 |
| K11D | 0.0638 |
| K11T | 0.513 |
| K11C | 0.369 |
| K11Y | 0.201 |
| R13P | 0.0852 |
| R13H | 0.117 |
| R29A | 0.122 |
| V184N | 1.19 |
| V184E | 0.657 |
| L123R | 1.45 |
| Y14W | 0.851 |
| Y14N | 0.165 |

From the supplement of paper PMC11811203
